Experimental data taken from patent publication US20240245811A1, “ALPHA RA[…] ANALOGUE AND USE THEREOF IN METHODS OF TREATING CCKB RECEPTOR POSITIVE DISEASES” (Paul Scherrer Institut, priority 2020, published 2024).
Where two headings read alike, the source gives them in different places.

How the values were obtained:
[1] = test system: A431/CCKBR tumors; assay: SPECT/CT imaging with 111In-PP-F11N after 225Ac-PP-F11N treatment; assay type: in vivo, nude mice; details: 13 MBq i.v., 2 h after injection, tumor-free mice after 45 or 60 kBq 225Ac-PP-F11N
Source text: Image reconstruction and processing is accomplished by using VivoQuant 3.0 Patch1 software.

[2] = test system: A431/CCKBR tumors; assay: Biodistribution study in A431/CCKBR xenografted nude mice; assay type: in vivo
Procedure: (§1) 1, 4, 24, 48 h and 7 days after administration of radiolabeled peptides, mice are sacrificed and the post mortem dissected tumors and organs are weighted and their activity is measured on a gamma counter (Packard Cobra II Auto Gamma, PerkinElmer, Switzerland).

[3] = as above; assay type: in vivo; details: female, CD-1 nude, mouse, iv, total radioactivity; for tissue uptake at 4 h: 4 h post injection; for tissue uptake at 24 h: 24 h post injection; for tissue uptake at 48 h: 48 h post injection; for tissue uptake at 168 h: 7 days post injection
Procedure: as §1

[4] = Histological (HE) analysis of kidney and stomach after treatment; assay type: in vivo, nude mice; details: 60 and 120 kBq groups, organs dissected between day 34 and 49
[5] = test system: A431/CCKBR tumors; assay: Therapy study in A431/CCKBR tumor-bearing nude mice; assay type: in vivo; details: 30-120 kBq, all groups
Procedure: For the therapy study, nude mice are subcutaneously injected with 5×10^6 A431/CCKBR cells on the left shoulder. […] The control group is injected with 100 μL PBS. Tumor diameters and mice weight are recorded daily during the working days. Tumor volume is calculated by using the formula formula V=(W^2×L)/2 (Faustino-Rocha et al. Lab Anim. 2013, 42(6), 217-224). Nude mice are sacrificed when the tumor volume exceeded 1.5 cm^3. The data are obtained from two sets of experiments including control, 30, 45, 60 kBq and control, 60, 90, 120 kBq treatment groups.
GraphPad Prism 7.00 for Windows was used for all statistical analysis. […] Log-rank (Mantel-Cox) test and Gehan-Breslow-Wilcoxon test are performed to compare different survival curves of treatment groups with the control group. Endpoints are defined as death in survival curves. Values of P<0.05 are considered statistically significant. The results are reported as mean±standard deviation of at least three independent replicates.

[6] = test system: A431/CCKBR cells; assay: Cell proliferation assay (CellTiter 96 AQueous); assay type: cell-based, human; details: 24 h
Procedure: Human epidermoid carcinoma A431 stable cell line that overexpress CCKBR, generated as previously described (Aloj et al., J Nucl Med 2004, 45(3), 485-94) can be cultured in DMEM, supplemented with 10% FBS (Bio Concept, Switzerland), 2 mM glutamine and antibiotics (0.1 mg/mL streptomycin, 100 IU penicillin) at 37° C. in a humidified incubator containing 5% CO2.
For the cell proliferation assay, 4×10^3 cells per well are seeded on the 96-well plates.
Cell proliferation can be analyzed using CellTiter 96 AQueous Non-Radioactive Cell Proliferation Kit (Promega AG, Switzerland) according to the manufacturer's instruction. Absorbance of formazan product is measured at 570 nm with a reference of 650 nm using a MicroPlate Reader (PerkinElmer, Switzerland). The absorbance of the control (untreated) cells is set as 100% cell viability. […] The assay is performed in triplicate.

[7] = target: T1, CCKBR (Homo sapiens, UniProt P32239); details: cited from earlier work
T1 sequence (P32239 1-447): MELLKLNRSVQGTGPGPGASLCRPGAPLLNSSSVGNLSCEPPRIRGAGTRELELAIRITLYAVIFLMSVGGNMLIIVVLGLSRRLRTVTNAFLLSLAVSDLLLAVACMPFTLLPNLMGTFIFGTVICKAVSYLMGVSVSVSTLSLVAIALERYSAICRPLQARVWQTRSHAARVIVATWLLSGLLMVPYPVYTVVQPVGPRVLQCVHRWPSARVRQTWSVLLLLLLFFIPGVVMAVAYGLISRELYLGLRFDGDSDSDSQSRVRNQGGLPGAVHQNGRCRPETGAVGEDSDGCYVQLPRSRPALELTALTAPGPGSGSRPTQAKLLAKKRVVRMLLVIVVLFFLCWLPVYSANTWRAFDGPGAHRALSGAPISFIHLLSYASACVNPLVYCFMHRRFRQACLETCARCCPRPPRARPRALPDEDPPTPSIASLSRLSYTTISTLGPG

[8] = 38 kBq, stomach, read-out: activity in stomach
[9] = tumor (A431/CCKBR xenograft), 38 kBq, tumor, read-out: tumor uptake

CCCC[C@H](NC(=O)[C@H](Cc1c[nH]c2ccccc12)NC(=O)CNC(=O)[C@H](Cc1ccc(O)cc1)NC(=O)[C@H](C)NC(=O)[C@@H](CCC(=O)O)NC(=O)[C@@H](CCC(=O)O)NC(=O)[C@@H](CCC(=O)O)NC(=O)[C@@H](CCC(=O)O)NC(=O)[C@@H](CCC(=O)O)NC(=O)[C@@H](CCC(=O)O)NC(=O)CN1CCN(CC(=O)O)CCN(CC(=O)O)CCN(CC(=O)O)CC1)C(=O)N[C@@H](CC(=O)O)C(=O)N[C@@H](Cc1ccccc1)C(N)=O [^111In-PP-F11N, metal not drawn]
location of radioactive signals on SPECT/CT [1]: only detected in the excretion organs including kidneys and bladder

CCCC[C@H](NC(=O)[C@H](Cc1c[nH]c2ccccc12)NC(=O)CNC(=O)[C@H](Cc1ccc(O)cc1)NC(=O)[C@H](C)NC(=O)[C@@H](CCC(=O)O)NC(=O)[C@@H](CCC(=O)O)NC(=O)[C@@H](CCC(=O)O)NC(=O)[C@@H](CCC(=O)O)NC(=O)[C@@H](CCC(=O)O)NC(=O)[C@@H](CCC(=O)O)NC(=O)CN1CCN(CC(=O)O)CCN(CC(=O)O)CCN(CC(=O)O)CC1)C(=O)N[C@@H](CC(=O)O)C(=O)N[C@@H](Cc1ccccc1)C(N)=O [^225Ac-PP-F11N, metal not drawn]
tumor-to-kidney and tumor-to-stomach ratios ([2]; at analyzed time points): excellent | body or organ weights, general health or anatomy ([2]; biodistribution study, 38 kBq): no significant differences in body or organ weights, general health or anatomy | activity level in the kidney ([2]; kidney, 1 week post injection): 1.2% | activity level in the kidney ([2]; kidney, 48 h post injection): 3.8% | decrease in accumulation in the kidney ([2]; kidney, within the first four hours): 50% | tissue uptake at 4 h ([3]; 38 kBq, kidney, read-out: accumulation in the kidney): 4.2 %ID/g | tissue uptake at 1 h ([3]; 38 kBq, kidney, start of the first four hours (1 h post injection), read-out: accumulation in the kidney): 8.1 %ID/g | tissue uptake ([3]; 38 kBq, liver and bone, all analyzed time points, read-out: non-specific uptake in the liver and bone): < 2 %ID/g | tissue uptake at 1 h ([3]; 38 kBq, stomach, 1 h post injection, read-out: activity in stomach): 1.5 %ID/g | tissue uptake at 4 h [3, 8]: 1.3 %ID/g | tissue uptake at 24 h [3, 8]: 1.2 %ID/g | tissue uptake at 48 h [3, 8]: 0.8 %ID/g | tissue uptake at 168 h [3, 8]: 0.3 %ID/g | tissue uptake at 4 h [3, 9]: 11.2 %ID/g | tissue uptake at 24 h [3, 9]: 7.2 %ID/g | tissue uptake at 48 h [3, 9]: 5.7 %ID/g | tissue uptake at 168 h [3, 9]: 4.5 %ID/g | tissue uptake at 1 h ([3]; tumor (A431/CCKBR xenograft), tumor, 1 h post injection, 38 kBq i.v., read-out: tumor uptake): 13 %ID/g | HE stains of kidney and stomach versus control [4]: no signs of acute radiation toxicity | body weight and cytotoxicity symptoms during the treatment [5]: no body weight losses or other cytotoxicity symptoms | activity level at maximum cytotoxic effect (0% of cell viability) [6]: 100 kBq/mL

CCCC[C@H](NC(=O)[C@H](Cc1c[nH]c2ccccc12)NC(=O)CNC(=O)[C@H](Cc1ccc(O)cc1)NC(=O)[C@H](C)NC(=O)[C@@H](CCC(=O)O)NC(=O)[C@@H](CCC(=O)O)NC(=O)[C@@H](CCC(=O)O)NC(=O)[C@@H](CCC(=O)O)NC(=O)[C@@H](CCC(=O)O)NC(=O)[C@@H](CCC(=O)O)NC(=O)CN1CCN(CC(=O)O)CCN(CC(=O)O)CCN(CC(=O)O)CC1)C(=O)N[C@@H](CC(=O)O)C(=O)N[C@@H](Cc1ccccc1)C(N)=O [metal not drawn]
tumor uptake and kidney accumulation ([7]; WO 2015/067473 A1): good tumor uptake as well as low accumulation in the kidneys | accumulation in healthy tissues ([7]; recent studies (Sauter 2019, Rottenburger 2020)): can accumulate in healthy tissues (i.e. in the stomach)
